Assay [1] addresses calcitonin receptor. In words: cell-based or functional assay.
Assay [2] addresses calcitonin receptor. In words: calcitonin receptor binding assay.
The target of assay [3] is GLP-1/GIP/CT (receptors of the 'GLP-1/GIP/CT cyclase' assay). In words: cell-based or functional assay.
Assay [4] addresses amylin receptor (rat). Put plainly: 125I-amylin displacement, rat nucleus accumbens membranes.
For assay [5], the target named is calcitonin receptor. Put plainly: CT receptor binding assay.
Sequence of calcitonin receptor (P30988 whole entry): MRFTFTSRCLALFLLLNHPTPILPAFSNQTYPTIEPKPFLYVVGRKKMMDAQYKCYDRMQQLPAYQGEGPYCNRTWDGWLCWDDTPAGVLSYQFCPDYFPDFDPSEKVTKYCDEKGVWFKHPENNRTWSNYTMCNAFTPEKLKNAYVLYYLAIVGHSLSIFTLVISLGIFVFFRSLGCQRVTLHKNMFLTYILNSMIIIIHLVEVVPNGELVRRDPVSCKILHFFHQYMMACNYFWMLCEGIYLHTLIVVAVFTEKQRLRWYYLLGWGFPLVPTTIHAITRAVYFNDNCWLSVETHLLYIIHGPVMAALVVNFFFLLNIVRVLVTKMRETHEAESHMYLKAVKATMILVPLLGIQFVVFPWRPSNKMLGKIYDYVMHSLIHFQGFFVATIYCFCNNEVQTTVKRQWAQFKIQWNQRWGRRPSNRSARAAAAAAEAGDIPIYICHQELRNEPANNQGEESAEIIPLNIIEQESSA
Assay [6] deals with T1, CGRP receptor (Homo sapiens (Human)), Q16602.
T1 chain 1: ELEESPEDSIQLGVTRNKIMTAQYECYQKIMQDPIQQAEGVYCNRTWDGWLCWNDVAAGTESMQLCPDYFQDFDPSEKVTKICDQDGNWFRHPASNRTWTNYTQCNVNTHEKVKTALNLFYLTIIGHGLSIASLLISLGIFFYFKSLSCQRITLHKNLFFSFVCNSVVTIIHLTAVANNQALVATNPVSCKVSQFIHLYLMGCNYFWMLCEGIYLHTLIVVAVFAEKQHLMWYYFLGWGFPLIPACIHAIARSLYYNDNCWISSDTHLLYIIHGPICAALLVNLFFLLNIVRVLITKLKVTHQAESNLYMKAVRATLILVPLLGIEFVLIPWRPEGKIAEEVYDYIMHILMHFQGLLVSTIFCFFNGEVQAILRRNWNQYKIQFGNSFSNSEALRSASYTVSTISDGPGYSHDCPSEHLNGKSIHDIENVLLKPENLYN
T1 chain 2: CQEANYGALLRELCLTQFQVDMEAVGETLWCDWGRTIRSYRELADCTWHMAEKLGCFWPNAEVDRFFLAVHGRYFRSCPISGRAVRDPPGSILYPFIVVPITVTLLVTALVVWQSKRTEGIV
Put plainly: CGRP receptor binding assay.

Assay [7] deals with amylin receptor (rat). In words: amylin receptor binding assay.

Results on 4 molecules are retold here after patent EP2330125A2.

B1: [#Suc-(bAla)-PYY-(3-36), amide] [#NH-Des-Lys1-Rat Amylin, amide] (peptide)
chain 1: not shown
chain 2: CNTATCATQRLANFLVRSSNNLGPVLPPTNVGSNTY
modifications: not checked
For B1, the CT cyclase in the assay with calcitonin receptor [1] stood at 645. Moreover, the Receptor Binding in the assay with calcitonin receptor [2] is 46.

B2: Rat amylin (peptide)
peptide: KCNTATCATQRLANFLVRSSNNLGPVLPPTNVGSNTY
modifications: not checked
In assay [3], B2 had a GLP-1/GIP/CT cyclase of 5. Moreover, the CT cyclase in the assay with calcitonin receptor [1] was determined as 326. Besides, the Receptor Binding in the assay with calcitonin receptor [2] amounted to 3; with amylin receptor (rat) [4] it was 0.05.

B3: CCK/Amylin-sCT hybrid DF(P-CH2SO3)… … (peptide)
peptide: DFMGWMDFGKRKCNTATCATQRLANELVRLQTYPRTNVGSNTY
modifications: not checked
In the case of B3, the IC50 (commonly the point on the concentration scale where inhibition reaches its midpoint) with calcitonin receptor [5] was determined as 44 pM; in assay [6], 4400 pM; in the assay with amylin receptor (rat) [7] it was 83 pM.

B4: 27(p-CH2SO3)-PheCCK8(26-33),G,K,R,15Glu,hAmy(1-17),18Arg,sCT(18-26),hAmy(32-37) (peptide)
peptide: B3 peptide
modifications: not checked
On to B4, for which the Receptor Binding with calcitonin receptor [2] amounted to 0.04.
